Test results: paper PMC9670587

Experiments:
FcγRIIA = FcγRIIA (UniProt P12318)
FcγRIIIA = FcγRIIIA (UniProt P08637)
Chain of UniProt P08637 (P08637 17-254): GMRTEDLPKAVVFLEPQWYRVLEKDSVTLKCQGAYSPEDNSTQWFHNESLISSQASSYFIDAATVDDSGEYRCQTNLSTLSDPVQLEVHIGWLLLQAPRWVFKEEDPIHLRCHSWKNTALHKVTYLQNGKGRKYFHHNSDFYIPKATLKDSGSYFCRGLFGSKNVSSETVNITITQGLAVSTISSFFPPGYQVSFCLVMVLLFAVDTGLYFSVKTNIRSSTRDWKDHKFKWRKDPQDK

Chain of UniProt P12318 (P12318 34-317): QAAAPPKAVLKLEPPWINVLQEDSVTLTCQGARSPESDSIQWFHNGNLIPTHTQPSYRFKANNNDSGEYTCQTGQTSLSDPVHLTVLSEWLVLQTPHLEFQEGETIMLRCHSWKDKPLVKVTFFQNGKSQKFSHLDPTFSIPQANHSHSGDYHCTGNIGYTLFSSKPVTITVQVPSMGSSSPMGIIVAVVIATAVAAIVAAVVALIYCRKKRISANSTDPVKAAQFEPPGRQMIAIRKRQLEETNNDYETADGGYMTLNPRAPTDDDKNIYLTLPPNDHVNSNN

- antibody-dependent cellular phagocytosis (ADCP), EC50 (FcγRIIA): 0.139 nM
- antibody-dependent cellular phagocytosis (ADCP), EC50 (FcγRIIIA): 0.139 nM
Substance: IMM01, recombinant SIRPα-Fc fusion protein
